Data: US20240417437A1, “Linker Polypeptides” (Trutino Biosciences Inc., priority 2021, published 2024)
Substitutions are numbered along the chain they refer to. Names may count otherwise.

Tests used:
[1] = type: binding; conditions: for fusion protein binding to heparin: pH 6
Protocol: 96-well plates were coated with 10 μg/mL of Heparin-BSA conjugate (provided by Dr. Mueller, Boerhinger Ingelheim) or control BSA for 18-22 hours at room temperature on shaker (350 rpm). After washing, wells are blocked with 2% milk powder in PBS-0.05% Tween 20 or PBS-0.05% Tween 20/1% BSA for 90 minutes. The fusion proteins were then titrated in either 2% milk powder in PBS-0.05% Tween 20 or 1% BSA/PBS-0.05% Tween 20, pH 7.5 and/or pH 6, and added for 2 hours at room temperature with shaking. After washing, an anti-mouse IL-2 biotin-labelled detection antibody (JES6-5H4, ThermoFisher), anti-6×-His Tag HRP conjugate antibody (Invitrogen, 1 mg/mL, cat #MA1-21315-HRP), or anti-human IgG HRP conjugate antibody (SouthernBiotech) was added, and binding was detected using Ultra Streptavidin HRP (ThermoFisher). The plate was developed by adding the chromogenic tetramethylbenzidine substrate (Ultra TMB, ThermoFisher). The reaction was stopped by addition of 0.5 M H2SO4, and the absorbance was read at 450-650 nm. […] Moreover, when the same pH-dependent heparin binding motif was inserted into different locations of IL-2 fusion proteins, all resulting proteins bound heparin at pH 6 with similar high affinities (FIGS. 4F and 4G). Likewise, similar binding affinities were observed when another heparin targeting sequence was engineered into different sites of IL-2 fusion proteins (FIGS. 4H-4I). […] The heparin binding activity is recovered when a heparin binding motif is engineered into the linker polypeptide-IL-15 fusion protein (Construct WWW). Finally, linker polypeptide-IL-2 fusion proteins engineered with a heparin binding site show about 30-fold enhanced binding to heparin in vitro compared to constructs lacking a heparin binding site (Construct EEE and Construct NNNN vs. Construct AAA and Construct NNN, respectively) as shown in FIG. 4M.

[2] = target: fibronectin (Homo sapiens, UniProt P02751); test: Fusion protein plate binding assay on fibronectin
Protocol: A similar plate-based assay was developed to interrogate binding of IL-2 fusion variants to fibronectin. 96-well plates were coated with fibronectin (4-10 μg/mL, Sigma) or control BSA for 18-22 hours at room temperature on shaker (350 rpm). After washing, wells were blocked with 2% milk powder in PBS-0.05% Tween 20 or protein-free blocking buffer (Pierce) for 90 min, then fusion proteins were titrated in blocking buffer-0.1% Tween 20, pH 7.5 and/or pH 6, and added for 1 hour at room temperature with shaking. After washing, an anti-mouse IL-2 biotin-labelled detection antibody (JES6-5H4, ThermoFisher) or anti-human IgG HRP conjugate antibody (SouthernBiotech) was added, and binding was detected using Ultra Streptavidin HRP (ThermoFisher). The plate was developed by adding the chromogenic tetramethylbenzidine substrate (Ultra TMB, ThermoFisher). The reaction was stopped by addition of 0.5 M H2SO4, and the absorbance was read at 450-650 nm.

[3] = system: collagen; test: Collagen-agarose pulldown assay with IL-2 immunoblot; type: binding; conditions: for binding to collagen-agarose beads (pulldown): 18-22 hours at 4° C.
Protocol: To test binding to collagen, a pulldown assay using agarose cross-linked to collagen (Sigma) was performed. IL-2 fusion proteins were incubated with collagen-agarose or control agarose beads for 18-22 hours at 4° C. with gentle rotation in 1% BSA/PBS-0.05% Tween 20. After washing, proteins bound to the beads were eluted by resuspending beads in SDS sample buffer (Life Technologies). Bound proteins were then separated by SDS-PAGE on 4-12% BisTris gradient gel, followed by immunoblotting with goat anti-mouse IL-2 polyclonal antibody (AF-402-NA; R&D systems). Donkey anti-goat HRP-conjugated antibody was used for detection (Jackson Immuno Research, West Grove, PA), and the blot was developed using the SuperSignal West Femto Maximum sensitivity detection reagent (ThermoFisher) following the manufacturer's recommendations.

fibronectin, sequence (P02751 32-2477, species assumed): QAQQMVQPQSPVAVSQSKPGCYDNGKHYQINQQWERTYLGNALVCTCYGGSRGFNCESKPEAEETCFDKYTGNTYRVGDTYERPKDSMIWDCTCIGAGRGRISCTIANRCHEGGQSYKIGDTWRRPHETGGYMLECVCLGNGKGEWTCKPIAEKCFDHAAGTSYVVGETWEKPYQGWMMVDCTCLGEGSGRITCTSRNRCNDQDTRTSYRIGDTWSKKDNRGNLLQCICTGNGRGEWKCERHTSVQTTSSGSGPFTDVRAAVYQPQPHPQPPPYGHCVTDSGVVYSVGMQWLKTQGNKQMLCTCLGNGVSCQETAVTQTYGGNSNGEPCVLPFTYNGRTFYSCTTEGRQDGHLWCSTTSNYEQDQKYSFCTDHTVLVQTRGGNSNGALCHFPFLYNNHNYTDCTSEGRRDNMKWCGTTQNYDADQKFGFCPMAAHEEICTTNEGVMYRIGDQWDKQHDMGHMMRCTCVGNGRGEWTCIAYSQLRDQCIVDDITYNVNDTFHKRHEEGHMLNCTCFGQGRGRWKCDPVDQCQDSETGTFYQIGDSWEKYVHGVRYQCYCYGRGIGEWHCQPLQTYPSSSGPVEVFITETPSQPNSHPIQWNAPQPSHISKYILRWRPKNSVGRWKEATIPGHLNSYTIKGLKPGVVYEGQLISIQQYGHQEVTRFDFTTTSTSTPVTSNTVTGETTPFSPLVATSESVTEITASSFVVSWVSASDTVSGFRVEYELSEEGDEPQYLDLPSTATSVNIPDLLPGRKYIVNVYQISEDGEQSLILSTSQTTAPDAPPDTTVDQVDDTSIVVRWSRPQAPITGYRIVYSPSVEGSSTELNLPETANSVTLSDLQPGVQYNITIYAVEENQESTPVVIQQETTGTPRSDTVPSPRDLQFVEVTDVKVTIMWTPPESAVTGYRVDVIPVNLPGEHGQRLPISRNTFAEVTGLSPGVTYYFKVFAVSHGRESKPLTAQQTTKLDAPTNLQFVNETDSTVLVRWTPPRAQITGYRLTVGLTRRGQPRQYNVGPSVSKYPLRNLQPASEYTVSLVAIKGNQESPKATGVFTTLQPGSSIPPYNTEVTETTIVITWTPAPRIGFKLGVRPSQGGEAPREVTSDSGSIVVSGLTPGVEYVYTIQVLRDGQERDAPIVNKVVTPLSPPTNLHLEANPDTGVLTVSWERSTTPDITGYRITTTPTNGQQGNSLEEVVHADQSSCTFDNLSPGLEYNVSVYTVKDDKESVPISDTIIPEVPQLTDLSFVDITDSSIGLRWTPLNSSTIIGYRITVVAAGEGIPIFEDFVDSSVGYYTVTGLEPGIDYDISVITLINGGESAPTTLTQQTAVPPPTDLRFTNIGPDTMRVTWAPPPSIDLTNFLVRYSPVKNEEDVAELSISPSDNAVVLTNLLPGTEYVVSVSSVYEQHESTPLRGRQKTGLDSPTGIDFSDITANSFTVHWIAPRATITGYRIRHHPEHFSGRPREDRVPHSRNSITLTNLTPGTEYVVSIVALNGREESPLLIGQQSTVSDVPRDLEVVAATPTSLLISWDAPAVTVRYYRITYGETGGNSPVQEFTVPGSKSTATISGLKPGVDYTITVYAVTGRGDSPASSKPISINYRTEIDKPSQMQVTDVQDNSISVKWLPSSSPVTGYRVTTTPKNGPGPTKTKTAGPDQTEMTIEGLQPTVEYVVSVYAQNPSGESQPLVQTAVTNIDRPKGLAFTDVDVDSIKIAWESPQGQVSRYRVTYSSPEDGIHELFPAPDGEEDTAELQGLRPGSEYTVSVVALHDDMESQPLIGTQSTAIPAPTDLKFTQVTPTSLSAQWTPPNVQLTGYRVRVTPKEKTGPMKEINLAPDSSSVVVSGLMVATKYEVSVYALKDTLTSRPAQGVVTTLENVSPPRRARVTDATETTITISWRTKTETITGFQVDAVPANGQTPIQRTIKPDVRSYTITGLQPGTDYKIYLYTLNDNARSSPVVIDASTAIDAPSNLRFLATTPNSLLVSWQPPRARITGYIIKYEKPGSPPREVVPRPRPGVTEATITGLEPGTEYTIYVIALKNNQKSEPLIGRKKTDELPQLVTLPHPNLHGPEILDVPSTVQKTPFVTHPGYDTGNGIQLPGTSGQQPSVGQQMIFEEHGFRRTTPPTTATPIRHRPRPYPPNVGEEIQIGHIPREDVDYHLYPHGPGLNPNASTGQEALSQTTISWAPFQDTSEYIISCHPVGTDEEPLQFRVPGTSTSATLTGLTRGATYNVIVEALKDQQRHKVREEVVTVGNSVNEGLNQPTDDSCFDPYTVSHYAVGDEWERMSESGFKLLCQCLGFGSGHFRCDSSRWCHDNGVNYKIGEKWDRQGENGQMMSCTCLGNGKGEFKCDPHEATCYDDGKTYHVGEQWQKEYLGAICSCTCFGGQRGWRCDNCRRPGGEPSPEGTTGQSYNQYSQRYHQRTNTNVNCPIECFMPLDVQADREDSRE

B1: Construct NN: mIL2-2x(SG4)-MMPcs1-2x(GHHPH)-mIL2Ra(1-215)-muIgG1Fc; pH heparin (protein)
chain: APTSSSTSSSTAEAQQQQQQQQQQQQHLEQLLMDLQELLSRMENYRNLKLPRMLTFKFYLPKQATELKDLQCLEDELGPLRHVLDLTQSKSFQLEDAENFISNIRVTVVKLKGSDNTFECQFDDESATVVDFLRRWIAFCQSIISTSPQSGGGGSGGGGGPLGVRGGHHPHGHHPHELCLYDPPEVPNATFKALSYKNGTILNCECKRGFRRLKELVYMRCLGNSWSSNCQCTSNSHDKSRKQVTAQLEHQKEQQTTTDMQKPTQSMHQENLTGHCREPPPWKHEDSKRIYHFVEGQSVHYECIPGYKALQRGPAISICKMKCGKTGWTQPQLTCVDEREHHRFLASEESQGSRNSSPESETSCPITTTDFPQPTETTAMTETFVLTMEYKGCKPCICTVPEVSSVFIFPPKPKDVLTITLTPKVTCVVVDISKDDPEVQFSWFVDDVEVHTAQTQPREEQFNSTFRSVSELPIMHQDWLNGKEFKCRVNSAAFPAPIEKTISKTKGRPKAPQVYTIPPPKEQMAKDKVSLTCMITDFFPEDITVEWQWNGQPAENYKNTQPIMDTDGSYFVYSKLNVQKSNWEAGNTFTCSVLHEGLHNHHTEKSLSHSPGK
modifications: Synthetic: Construct NN
notes: mIL2-2x(SG4)-MMPcs1-2x(GHHPH)-mIL2Ra(1-215)-muIgG1Fc; pH heparin
fusion protein binding to heparin [1]: mimicked the Construct CC binding profile

B2: Construct B: mIL2-2x(SG4)-MMPcs1-2x(G4S)-mIL2Ralpha(1-215)-mIgG1Fc; no TME (protein)
chain: B1 chain with H168G, H169G, P170G, H171S, H173G, H174G, P175G, H176S
modifications: Synthetic: Construct B polypeptide sequence: m IL2-2x(SG4) MMPcs1 2x (G4S) IL2Ralpha mIgG1 Fc
notes: mIL2-2x(SG4)-MMPcs1-2x(G4S)-mIL2Ralpha(1-215)-mIgG1Fc; no TME
heparin binding EC50 value, fold higher than Construct CC [1]: greater than 100 fold
fusion protein binding to heparin [1]: much weaker
fusion protein binding to fibronectin ([2]; acidic pH (pH 6)): No significant binding
fusion protein binding to fibronectin ([2]; pH 7.5 (neutral)): No significant binding

B3: Construct CC: mIL2-2x(GHHPH)-MMPcs1-2x(G4S)-mIL2Ra(1-215)-muIgG1Fc; pH heparin (protein)
chain: APTSSSTSSSTAEAQQQQQQQQQQQQHLEQLLMDLQELLSRMENYRNLKLPRMLTFKFYLPKQATELKDLQCLEDELGPLRHVLDLTQSKSFQLEDAENFISNIRVTVVKLKGSDNTFECQFDDESATVVDFLRRWIAFCQSIISTSPQGHHPHGHHPHGPLGVRGGGGGSGGGGSELCLYDPPEVPNATFKALSYKNGTILNCECKRGFRRLKELVYMRCLGNSWSSNCQCTSNSHDKSRKQVTAQLEHQKEQQTTTDMQKPTQSMHQENLTGHCREPPPWKHEDSKRIYHFVEGQSVHYECIPGYKALQRGPAISICKMKCGKTGWTQPQLTCVDEREHHRFLASEESQGSRNSSPESETSCPITTTDFPQPTETTAMTETFVLTMEYKGCKPCICTVPEVSSVFIFPPKPKDVLTITLTPKVTCVVVDISKDDPEVQFSWFVDDVEVHTAQTQPREEQFNSTFRSVSELPIMHQDWLNGKEFKCRVNSAAFPAPIEKTISKTKGRPKAPQVYTIPPPKEQMAKDKVSLTCMITDFFPEDITVEWQWNGQPAENYKNTQPIMDTDGSYFVYSKLNVQKSNWEAGNTFTCSVLHEGLHNHHTEKSLSHSPGK
modifications: Synthetic: Construct CC
notes: mIL2-2x(GHHPH)-MMPcs1-2x(G4S)-mIL2Ra(1-215)-muIgG1Fc; pH heparin
EC50 ([1]; acidic pH, read-out: heparin binding EC50): ~0.01 µM
fusion protein binding to heparin [1]: bound heparin in a dose-dependent manner and with higher affinity than Construct B
pH preference of heparin binding ([1]; pH 6 vs pH 7.5): preferentially bound heparin at acidic pH

B4: Construct GG: mIL2-SGG-KLWVLPK-MMPcs1-2x(G4S)-mIL2Ra(1-215)-muIgG1Fc; collagen IV (protein)
chain: B3 chain with G150S, H151G, H152G, P153K, H154L, G155W, H156V, H157L, H159K
modifications: Synthetic: Construct GG
notes: mIL2-SGG-KLWVLPK-MMPcs1-2x(G4S)-mIL2Ra(1-215)-muIgG1Fc; collagen IV
binding to collagen-agarose beads (pulldown) [3]: specifically bound
fraction bound, fold higher than the fraction of bound Construct B ([3]; blot quantitation): 2.5 fold

B5: Construct II: mIL2-LHERHLNNN-MMPcs1-2x(G4S)-mIL2Ra(1-215)-muIgG1Fc; collagen I (protein)
chain: B3 chain with G150S, H151L, P153E, H154R, G155H, H156L, H157N, P158N, H159N
modifications: Synthetic: Construct II
notes: mIL2-…-MMPcs1-2x(G4S)-mIL2Ra(1-215)-muIgG1Fc; collagen I
binding to collagen-agarose beads (pulldown) [3]: specifically bound

B6: Construct EE: mIL2-SGG-GGWSHW-MMPcs1-2x(G4S)-mIL2Ra(1-215)-muIgG1Fc; pH fibronectin (protein)
chain: APTSSSTSSSTAEAQQQQQQQQQQQQHLEQLLMDLQELLSRMENYRNLKLPRMLTFKFYLPKQATELKDLQCLEDELGPLRHVLDLTQSKSFQLEDAENFISNIRVTVVKLKGSDNTFECQFDDESATVVDFLRRWIAFCQSIISTSPQSGGGGWSHWGPLGVRGGGGGSGGGGSELCLYDPPEVPNATFKALSYKNGTILNCECKRGFRRLKELVYMRCLGNSWSSNCQCTSNSHDKSRKQVTAQLEHQKEQQTTTDMQKPTQSMHQENLTGHCREPPPWKHEDSKRIYHFVEGQSVHYECIPGYKALQRGPAISICKMKCGKTGWTQPQLTCVDEREHHRFLASEESQGSRNSSPESETSCPITTTDFPQPTETTAMTETFVLTMEYKGCKPCICTVPEVSSVFIFPPKPKDVLTITLTPKVTCVVVDISKDDPEVQFSWFVDDVEVHTAQTQPREEQFNSTFRSVSELPIMHQDWLNGKEFKCRVNSAAFPAPIEKTISKTKGRPKAPQVYTIPPPKEQMAKDKVSLTCMITDFFPEDITVEWQWNGQPAENYKNTQPIMDTDGSYFVYSKLNVQKSNWEAGNTFTCSVLHEGLHNHHTEKSLSHSPGK
modifications: Synthetic: Construct EE
notes: mIL2-SGG-GGWSHW-MMPcs1-2x(G4S)-mIL2Ra(1-215)-muIgG1Fc; pH fibronectin
fusion protein binding to fibronectin ([2]; acidic pH (pH 6)): dose-dependent binding
fusion protein binding to fibronectin ([2]; pH 7.5 (neutral)): no binding

B7: Construct Y: mIL2(C140S)-VRIQRKKEKMKET-MMPcs1-2x(G4S)-mIL2Ra(1-215)-muIgG1Fc; heparin (protein)
chain: APTSSSTSSSTAEAQQQQQQQQQQQQHLEQLLMDLQELLSRMENYRNLKLPRMLTFKFYLPKQATELKDLQCLEDELGPLRHVLDLTQSKSFQLEDAENFISNIRVTVVKLKGSDNTFECQFDDESATVVDFLRRWIAFSQSIISTSPQVRIQRKKEKMKETGPLGVRGGGGGSGGGGSELCLYDPPEVPNATFKALSYKNGTILNCECKRGFRRLKELVYMRCLGNSWSSNCQCTSNSHDKSRKQVTAQLEHQKEQQTTTDMQKPTQSMHQENLTGHCREPPPWKHEDSKRIYHFVEGQSVHYECIPGYKALQRGPAISICKMKCGKTGWTQPQLTCVDEREHHRFLASEESQGSRNSSPESETSCPITTTDFPQPTETTAMTETFVLTMEYKIEGRMDGCKPCICTVPEVSSVFIFPPKPKDVLTITLTPKVTCVVVDISKDDPEVQFSWFVDDVEVHTAQTQPREEQFNSTFRSVSELPIMHQDWLNGKEFKCRVNSAAFPAPIEKTISKTKGRPKAPQVYTIPPPKEQMAKDKVSLTCMITDFFPEDITVEWQWNGQPAENYKNTQPIMDTDGSYFVYSKLNVQKSNWEAGNTFTCSVLHEGLHNHHTEKSLSHSPGK
modifications: Synthetic: Construct Y
notes: mIL2(C140S)-…-MMPcs1-2x(G4S)-mIL2Ra(1-215)-muIgG1Fc; heparin
fusion protein binding to heparin [1]: bound heparin in a dose-dependent manner and with higher affinity than Construct B
